Source: article PMC10362797, “Phosphorylation of USP20 on Ser334 by IRAK1 promotes IL-1β-evoked signaling in vascular smooth muscle cells and vascular inflammation” (The Journal of Biological Chemistry, 2023)

Biological target: T1, TRAF6 (TNFR-associated factor 6), endogenous (mouse (endogenous in mouse SMCs), UniProt P70196 1-530)
T1 construct: TRAF6, E3 ubiquitin ligase, endogenously expressed in mouse aortic smooth muscle cells; source: endogenous, mouse SMC lysate
T1 sequence (looked up): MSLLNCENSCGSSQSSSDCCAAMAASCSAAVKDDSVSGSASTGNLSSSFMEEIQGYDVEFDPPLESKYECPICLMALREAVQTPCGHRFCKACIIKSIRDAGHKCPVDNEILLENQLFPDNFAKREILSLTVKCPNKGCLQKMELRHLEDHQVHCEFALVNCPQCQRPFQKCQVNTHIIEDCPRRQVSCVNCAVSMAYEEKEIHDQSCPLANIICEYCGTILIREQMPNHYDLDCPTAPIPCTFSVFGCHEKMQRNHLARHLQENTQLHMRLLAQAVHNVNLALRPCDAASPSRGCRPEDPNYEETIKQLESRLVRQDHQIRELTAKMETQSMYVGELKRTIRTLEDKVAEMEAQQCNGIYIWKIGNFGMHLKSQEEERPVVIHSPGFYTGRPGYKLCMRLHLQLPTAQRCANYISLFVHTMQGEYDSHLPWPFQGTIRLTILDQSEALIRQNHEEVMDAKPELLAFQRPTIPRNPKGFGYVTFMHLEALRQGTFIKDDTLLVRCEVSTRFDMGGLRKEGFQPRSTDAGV
Assay: co-IP; endogenous TRAF6 immunoprecipitated with anti-TRAF6(D-10) agarose overnight at 4 °C from lysates of mouse SMCs transduced with HA-USP20, serum starved 1 h and stimulated with IL-1β (1 ng/ml, 20 min); lysis buffer 50 mM Hepes pH 7.5, 2 mM EDTA, 250 mM NaCl, 10% glycerol, 0.5% Nonidet P-40; immunoblot for HA
Conditions: partners not purified

B1: HA-tagged USP20-S334A (mouse) (enzyme, UniProt Q8C6M1 1-916, looked up)
chain: MGDARDLCPHLDCIGEVTKEDLLLKSKGTCQSCGVAGPNLWACLQVTCPYVGCGESFADHSSIHAQVKKHNLTVNLTTFRVWCYACEREVFLEQRLAVHLASSSARLSEQDSPPPSHPLKAVPIAVADEGESESEDDDLKPRGLTGMKNLGNSCYMNAALQALSNCPPLTQFFLECGGLVRTDKKPALCKSYQKLISEVWHKKRPSYVVPTSLSHGIKLVNPMFRGYAQQDTQEFLRCLMDQLHEELKEPMVAAVAALTDARDSDSSDTDERRDGDRSPSEDEFLSCDSSSDRGEGDGQGRGGGSSKAEMELLISDEAGRAISEKERMKDRKFAWGQQRTNSEQVDEDADVDTAMASLDEQSREAQPPSPRSTSPCQTPEPDNEAHIRSSSRPCSPVHHHHEGHSKLSSSPPRASPVRMGPSYVLKKAQVPSTGGRRRKEQSYRSVISDVFNGSVLSLVQCLTCDRVSTTVETFQDLSLPIPGKEDLAKLHSAIYQNVPAKPGACGDSYSSQGWLAFIVEYIRRFVVSCTPSWFWGPVVTLEDCLAAFFAADELKGDNMYSCERCKKLRNGVKYCKVLCLPEILCVHLKRFRHEVMYSFKVSSHVSFPLEGLDLRPFLAKECTSQVTTYDLLSVICHHGTAGSGHYIAYCQNVINGQWYEFDDQYVTEVHETVVQNVEAYVLFYRKSSEEAMRERQQVVSLAAMREPSLLRFYVSREWLNKFNTFAEPGPITNHTFLCSHGGIPPNKYHYIDDLVVILPQSVWEHLYSRFGGGPAVNHLYVCSICQVEIEALAKRRRVEIDTFIKLNKAFQAEESPAVIYCISMHWFREWEAFVKGKDSEPPGPIDNSRIAQVKGSGHIQLKQGADCGQISEETWTYLSSLYGGGPEIAIRQSVAQLPDPESLHGEQKIEAETRAL
notes: Mimics unphosphorylated USP20; source: mouse SMCs, transduced with recombinant adenovirus, in protein extract/lysate; not shown: HA, N-terminal, kept
With B1 the “fold of USP20-WT in TRAF6 immunoprecipitates” value was ~2.2 fold.
